# Test results taken from article PMC2756588.
# T1: Abp1, P15891
# T1 sequence (P15891 535-592, looked up): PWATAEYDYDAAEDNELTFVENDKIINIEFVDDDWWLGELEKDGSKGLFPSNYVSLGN
# T2: Bbc1, P47068
# T2 sequence (P47068 1-78, looked up): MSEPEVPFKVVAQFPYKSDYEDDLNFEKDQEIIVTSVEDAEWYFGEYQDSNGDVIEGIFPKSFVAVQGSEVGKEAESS
# T3: Boi1, P38041
# T3 sequence (P38041 1-86, looked up): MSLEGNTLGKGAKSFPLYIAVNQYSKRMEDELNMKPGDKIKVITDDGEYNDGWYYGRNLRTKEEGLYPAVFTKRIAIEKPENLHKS
# T4: Boi2, P39969
# T4 sequence (P39969 32-116, looked up): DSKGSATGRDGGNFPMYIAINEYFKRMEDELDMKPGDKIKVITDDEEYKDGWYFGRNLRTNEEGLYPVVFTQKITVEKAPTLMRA
# T5: Bud14, P27637
# T5 sequence (P27637 247-328, looked up): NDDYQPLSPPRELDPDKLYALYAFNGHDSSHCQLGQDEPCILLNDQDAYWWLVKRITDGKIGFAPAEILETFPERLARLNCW
# T6: Bzz1-1, P38822
# T6 sequence (P38822 478-572, looked up): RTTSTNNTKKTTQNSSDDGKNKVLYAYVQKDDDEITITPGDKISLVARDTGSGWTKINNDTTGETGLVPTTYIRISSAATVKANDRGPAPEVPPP
# T7: Bzz1-2, P38822
# T7 sequence (P38822 568-633, looked up): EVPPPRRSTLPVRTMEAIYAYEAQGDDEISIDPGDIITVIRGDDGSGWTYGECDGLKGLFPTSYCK
# T8: Cdc25, P04821
# T8 sequence (P04821 50-136, looked up): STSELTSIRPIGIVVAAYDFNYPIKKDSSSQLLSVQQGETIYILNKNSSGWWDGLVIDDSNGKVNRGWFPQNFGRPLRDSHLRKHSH
# T9: Cyk3, Q07533
# T9 sequence (Q07533 1-83, looked up): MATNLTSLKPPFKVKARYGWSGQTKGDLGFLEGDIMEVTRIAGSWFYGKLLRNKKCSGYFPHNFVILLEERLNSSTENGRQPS
# T10: Fus1, P11710
# T10 sequence (P11710 432-512, looked up): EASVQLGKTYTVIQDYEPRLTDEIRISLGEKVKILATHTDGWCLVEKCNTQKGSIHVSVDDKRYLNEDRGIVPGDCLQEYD
# T11: Hof1, Q05080
# T11 sequence (Q05080 590-669, looked up): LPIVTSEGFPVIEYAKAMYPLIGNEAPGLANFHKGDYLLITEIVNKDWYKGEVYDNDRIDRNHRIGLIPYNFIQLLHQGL
# T12: Hse1, P38753
# T12 sequence (P38753 208-285, looked up): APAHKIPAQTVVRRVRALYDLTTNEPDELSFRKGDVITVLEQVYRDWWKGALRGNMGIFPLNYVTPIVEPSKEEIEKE
# T13: Lsb1, P53281
# T13 sequence (P53281 45-122, looked up): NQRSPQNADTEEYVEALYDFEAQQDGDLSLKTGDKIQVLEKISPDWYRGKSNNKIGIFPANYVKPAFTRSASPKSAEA
# T14: Lsb3, P43603
# T14 sequence (P43603 385-451, looked up): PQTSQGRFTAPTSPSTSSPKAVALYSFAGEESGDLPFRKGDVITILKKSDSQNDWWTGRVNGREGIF
# T15: Lsb4, P32793
# T15 sequence (P32793 402-468, looked up): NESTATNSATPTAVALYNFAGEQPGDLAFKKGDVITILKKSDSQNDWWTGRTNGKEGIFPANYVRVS
# T16: Myo5, Q04439
# T16 sequence (Q04439 1072-1160, looked up): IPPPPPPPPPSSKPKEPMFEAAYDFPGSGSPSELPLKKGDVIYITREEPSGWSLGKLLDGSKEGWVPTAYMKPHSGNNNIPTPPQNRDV
# T17: Nbp2, Q12163
# T17 sequence (Q12163 103-180, looked up): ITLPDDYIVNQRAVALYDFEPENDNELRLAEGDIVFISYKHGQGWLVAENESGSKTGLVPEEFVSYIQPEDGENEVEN
# T18: Pex13, P80667
# T18 sequence (P80667 295-386, looked up): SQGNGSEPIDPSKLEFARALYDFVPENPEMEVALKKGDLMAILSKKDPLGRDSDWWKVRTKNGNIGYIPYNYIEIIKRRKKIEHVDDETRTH
# T19: Pin3, Q06449
# T19 sequence (Q06449 53-122, looked up): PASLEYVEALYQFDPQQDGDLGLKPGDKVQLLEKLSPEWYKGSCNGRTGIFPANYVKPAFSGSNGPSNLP
# T20: Sla1-2, P32790
# T20 sequence (P32790 60-140, looked up): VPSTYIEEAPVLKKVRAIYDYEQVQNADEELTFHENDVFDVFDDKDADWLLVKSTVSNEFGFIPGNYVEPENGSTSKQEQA
# T21: Sla1-3, P32790
# T21 sequence (P32790 344-424, looked up): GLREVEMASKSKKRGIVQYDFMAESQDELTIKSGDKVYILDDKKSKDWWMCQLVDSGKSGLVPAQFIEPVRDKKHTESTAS
# Columns and labels:
# Assay in all cases: SPOT array
# Abp1, P15891 = target: T1, Abp1, P15891; settings: median of control spots 935
# Bbc1, P47068 = target: T2, Bbc1, P47068; settings: median of control spots 796
# Bem1-1, P29366 = settings: median of control spots 4282
# Sequence of Bem1-1, P29366 (P29366 55-141): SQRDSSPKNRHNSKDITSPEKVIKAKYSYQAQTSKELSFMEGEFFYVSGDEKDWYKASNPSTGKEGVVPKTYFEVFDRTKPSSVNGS
# Bem1-2, P29366 = settings: median of control spots 4347
# Sequence of Bem1-2, P29366 (P29366 139-227): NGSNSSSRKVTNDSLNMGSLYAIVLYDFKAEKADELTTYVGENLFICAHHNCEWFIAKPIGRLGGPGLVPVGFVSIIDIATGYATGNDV
# Boi1, P38041 = target: T3, Boi1, P38041; settings: median of control spots 1162
# Boi2, P39969 = target: T4, Boi2, P39969; settings: median of control spots 1161
# Bud14, P27637 = target: T5, Bud14, P27637; settings: median of control spots 956
# Bzz1-1, P38822 = target: T6, Bzz1-1, P38822; settings: median of control spots 4446
# Bzz1-2, P38822 = target: T7, Bzz1-2, P38822; settings: median of control spots 4538
# Cdc25, P04821 = target: T8, Cdc25, P04821; settings: median of control spots 969
# Cyk3, Q07533 = target: T9, Cyk3, Q07533; settings: median of control spots 1451
# Fus1, P11710 = target: T10, Fus1, P11710; settings: median of control spots 1200
# GST = settings: median of control spots 978
# Hof1, Q05080 = target: T11, Hof1, Q05080; settings: median of control spots 4086
# Hse1, P38753 = target: T12, Hse1, P38753; settings: median of control spots 1727
# Lsb1, P53281 = target: T13, Lsb1, P53281; settings: median of control spots 388
# Lsb3, P43603 = target: T14, Lsb3, P43603; settings: median of control spots 406
# Lsb4, P32793 = target: T15, Lsb4, P32793; settings: median of control spots 397
# Myo3, P36006 = settings: median of control spots 468
# Myo5, Q04439 = target: T16, Myo5, Q04439; settings: median of control spots 471
# Nbp2, Q12163 = target: T17, Nbp2, Q12163; settings: median of control spots 357
# Pex13, P80667 = target: T18, Pex13, P80667; settings: median of control spots 1341
# Pin3, Q06449 = target: T19, Pin3, Q06449; settings: median of control spots 2171
# Rvs167, P39743 = settings: median of control spots 2707
# Sequence of Rvs167, P39743 (P39743 419-482): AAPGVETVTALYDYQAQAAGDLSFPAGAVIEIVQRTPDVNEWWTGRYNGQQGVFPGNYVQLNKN
# Sho1, P40073 = settings: median of control spots 1148
# Sequence of Sho1, P40073 (P40073 287-367): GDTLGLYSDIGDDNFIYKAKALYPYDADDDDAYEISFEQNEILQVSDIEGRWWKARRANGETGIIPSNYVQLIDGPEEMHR
# Sla1-2, P32790 = target: T20, Sla1-2, P32790; settings: median of control spots 712
# Sla1-3, P32790 = target: T21, Sla1-3, P32790; settings: median of control spots 5475
Binder,"SPOT intensity (Abp1, P15891)","SPOT intensity (Bbc1, P47068)","SPOT intensity (Bem1-1, P29366)","SPOT intensity (Bem1-2, P29366)","SPOT intensity (Boi1, P38041)","SPOT intensity (Boi2, P39969)","SPOT intensity (Bud14, P27637)","SPOT intensity (Bzz1-1, P38822)","SPOT intensity (Bzz1-2, P38822)","SPOT intensity (Cdc25, P04821)","SPOT intensity (Cyk3, Q07533)","SPOT intensity (Fus1, P11710)",SPOT intensity (GST),"SPOT intensity (Hof1, Q05080)","SPOT intensity (Hse1, P38753)","SPOT intensity (Lsb1, P53281)","SPOT intensity (Lsb3, P43603)","SPOT intensity (Lsb4, P32793)","SPOT intensity (Myo3, P36006)","SPOT intensity (Myo5, Q04439)",further results
RPVPRRPSQPLNTLS,125,423,0,75,0,1,11,0,13,37,1,0,0,13,34,94,138,163,5,0,"SPOT intensity (Nbp2, Q12163): 71; SPOT intensity (Pex13, P80667): 348; SPOT intensity (Pin3, Q06449): 26; SPOT intensity (Rvs167, P39743): 4060; SPOT intensity (Sho1, P40073): 95; SPOT intensity (Sla1-2, P32790): 0; SPOT intensity (Sla1-3, P32790): 31"
IAPIPMPKPNPTHIS,44,0,0,0,0,1,0,0,0,0,1,0,0,0,0,2,0,9,22,7,"SPOT intensity (Nbp2, Q12163): 1; SPOT intensity (Pex13, P80667): 54; SPOT intensity (Pin3, Q06449): 43; SPOT intensity (Rvs167, P39743): 0; SPOT intensity (Sho1, P40073): 0; SPOT intensity (Sla1-2, P32790): 1; SPOT intensity (Sla1-3, P32790): 0"
AHFQPQRTAPKPPIS,19,101,0,1860,0,0,1,1,0,5,0,0,0,0,0,17,0,4,413,104,"SPOT intensity (Nbp2, Q12163): 750; SPOT intensity (Pex13, P80667): 13; SPOT intensity (Pin3, Q06449): 5; SPOT intensity (Rvs167, P39743): 0; SPOT intensity (Sho1, P40073): 1; SPOT intensity (Sla1-2, P32790): 0; SPOT intensity (Sla1-3, P32790): 4"
QPQRTAPKPPISAPR,42,55,0,45,0,1,2,2,2,3,0,0,0,0,0,3,2,1,294,230,"SPOT intensity (Nbp2, Q12163): 276; SPOT intensity (Pex13, P80667): 44; SPOT intensity (Pin3, Q06449): 7; SPOT intensity (Rvs167, P39743): 0; SPOT intensity (Sho1, P40073): 0; SPOT intensity (Sla1-2, P32790): 0; SPOT intensity (Sla1-3, P32790): 9"
STPQTMRQAPKRPDA,102,8,0,2,0,1,0,0,2,0,1,0,1,0,0,24,45,33,47,47,"SPOT intensity (Nbp2, Q12163): 53; SPOT intensity (Pex13, P80667): 116; SPOT intensity (Pin3, Q06449): 192; SPOT intensity (Rvs167, P39743): 0; SPOT intensity (Sho1, P40073): 4; SPOT intensity (Sla1-2, P32790): 2; SPOT intensity (Sla1-3, P32790): 2"
IRMPSNPALPKKLLN,231,2,0,0,0,2,1,0,2,4,0,0,0,6,16,47,53,56,72,81,"SPOT intensity (Nbp2, Q12163): 15; SPOT intensity (Pex13, P80667): 352; SPOT intensity (Pin3, Q06449): 115; SPOT intensity (Rvs167, P39743): 0; SPOT intensity (Sho1, P40073): 79; SPOT intensity (Sla1-2, P32790): 18; SPOT intensity (Sla1-3, P32790): 0"
